Reference: patent EP4631972A1, “SITE-SPECIFIC COUPLED PEGYLATED INTERLEUKIN-2 MUTANT WITH RECEPTOR AFFINITY PREFERENCE AND USE THEREOF” (priority 2022, dated 2024)

How the values were obtained:
[1] = Pharmacokinetic study in cynomolgus monkeys; conditions: cynomolgus monkey
Experimental: Blood was collected before and after administration (4h, 8h, 24h, 48h, 72h, 120h, 168h, 240h, 336h) in the first cycle and after administration (8h, 24h, 48h, 72h, 120h, 168h, 240h) in the second cycle to detect plasma drug concentration.

Treg cells [2] = test: Pharmacodynamic study in cynomolgus monkeys, peripheral Treg cells; format: in vivo; conditions: doses ≤400 µg/kg
Excerpt: For information on administration and grouping, see Table 14.

Treg cells [3] = test: P-STAT5 activation in Treg cells of human PBMCs (flow cytometry); format: cell-based; conditions: P-STAT5 MFI in CD3+/CD4+/CD25+ cells of human PBMCs, 30 min stimulation
Experimental: In the example, the activation effect of each mutant prepared in Example 6 on P-STAT5 in different cell subsets (Tregs, CD8+T cells, NK cells) from human PBMCs (Miaoshun Biotechnology) was detected.
Human PBMC cells were thawed and resuspended to 1.5×10^6 cells/ml in RPMI1640 medium containing 10% FBS. 100 µl was added to each well of a V-bottom 96-well culture plate. Each IL-2 mutant prepared in Example 6 was diluted 10-fold in series: 1000 nM was used as the working concentration for the first well, and then 100 µl/well of each serial dilution was added to each cultured cell, stimulated at 37°C for 30 min, and the reaction was terminated on ice. The cells were treated with a commercial fixative and permeabilization agent (BD biosciences 558049 & 558050), and stained with antibodies against CD3, CD4, CD25, and CD8 according to conventional methods. P-STAT5 antibody staining was also performed (Table 7) to detect the mean fluorescence intensity (MFI) of P-STAT5 in CD3+/CD4+/CD25+ (Treg cells) and CD8+/CD3+ cells ([…]) by flow cytometry.

[4] = female, first-cycle dosing 50 µg/kg s.c.
[5] = female, second-cycle dosing 400 µg/kg s.c.
[6] = male, first-cycle dosing 50 µg/kg s.c.
[7] = male, second-cycle dosing 400 µg/kg s.c.

B1: 80K-1PEG-IL2-N88R-N77C: IL-2 mutant N88R, N77C, conjugation site 77, PEG molecular weight 80kD (conjugate)
chain: APTSSSTKKTQLQLEHLLLDLQMILNGINNYKNPKLTRMLTFKFYMPKKATELKHLQCLEEELKPLEEVLNLAQSKC(PEG 80 kDa)FHLRPRDLISRINVIVLELKGSETTFMCEYADETATIVEFLNRWITFSQSIISTLT
[1]; [4]
  AUC inf: 186.0556 µg·h/mL
  AUClast: 147.9248 µg·h/mL
  CL: 0.27
  Cmax: 902.5692 ng/mL
  MRT: 122.9092 h
  Tmax: 8 h
[1]; [5]
  AUC inf: 2286.053 µg·h/mL
  AUClast: 1481.823 µg·h/mL
  CL: 0.17
  Cmax: 8785.158 ng/mL
  MRT: 103.1 h
  Tmax: 8 h
[1]; [6]
  AUC inf: 278.1948 µg·h/mL
  AUClast: 184.7575 µg·h/mL
  CL: 0.18
  Cmax: 824.4732 ng/mL
  MRT: 142.9087 h
  Tmax: 48 h
[1]; [7]
  AUC inf: 2635.62 µg·h/mL
  AUClast: 1885.448 µg·h/mL
  CL: 0.15
  Cmax: 11432.93 ng/mL
  MRT: 102.1 h
  Tmax: 48 h
Treg cells [2]
  activation and proliferation of peripheral blood Treg cells: clear activation and proliferation
Treg cells [3]
  EC50: 29.8 nM
